Laboratory results taken from patent US20230398232A1 (NAVROGEN, published 2023).

What was measured:
human serum albumin = target: T1, human serum albumin (human, UniProt P02768 25-609); assay: ELISA, plate coated with 1 µg/mL HSA, probed with antibody
T1 construct: Negative control, coated at 1 ug/mL; also called HSA
Description: Antibodies were tested for uptake by incubating each with the human ovarian cancer cell line OVCAR3 that express mesothelin and membrane bound CA125. The parental line was used to generate an isogenic CA125 knockdown line via shRNA (referred to as OVCAR3-KO). Both Ab-3 and Ab-4 uptake were measured in replica in black 96-well microplates over the course of 24 hours measuring intracellular fluorescence on a Varioskan™ plate reader. […] Statistical analysis was done using a two-sided student's T-test.
Several studies have reported that antibodies that are bound by CA125 are negatively affected in eliciting humoral mediated immune killing as well as ADC-mediated killing of target cells (Kline J B, et. al. OncoTarget 8:52045-52060, 2017; Kline J B, et al. Eur J Immunol 48:1872-1882, 2018; Kline J B, et al. J Clin Oncol 5:15, 2018; Nicolaides N C, et al. Cancer Biol Ther 13:1-22, 2018; Nicolaides et. al. USPTO application 1698444). In an attempt to identify anti-mesothelin antibodies that naturally are not bound by CA125, we obtained a number of anti-mesothelin antibodies from academic and commercial sources (National Cancer Institute, Creative Biolabs, Novus, etc.) and tested them for CA125 binding. […] Recombinant mesothelin was used as a positive control and human serum albumin (HSA) was used as negative control. […]

[1] = target: T2, soluble human CA125 protein (human, UniProt Q8WXI7 1-14451, limits assumed); assay: ELISA, plate coated with 15 KU/mL soluble CA125, probed with antibody, anti-Fc-HRP detection
T2 construct: Coated on the ELISA plate at 15 KU/mL; also called MUC16/CA125; soluble CA125
Description: FIG. 1A. Screening for anti-mesothelin antibodies not bound by the immunosuppressive CA125 protein; identification of MES-1 antibody (SEQ ID NO: 1 and 2). Briefly, 96-well ELISA plates were coated with 15 KU/mL of soluble CA125, 1 μg/mL of recombinant human mesothelin protein as a positive control and 1 μg/mL of human serum albumin (HSA) as a negative control and probed with 2.5 μg/mL of different anti-mesothelin antibodies to determine if they are bound by CA125. Wells were washed and detected for binding via a secondary anti-human or anti-rodent Fc-horseradish peroxidase (HRP) conjugated antibody and 3,3′,5,5′-Tetramethylbenzidine (TMB) substrate. Reactions were stopped with 0.1N H₂SO₄ and wells quantified using a multi-well plate reader (Varioskan™, ThermoFisher) at 450 nm. As shown, the antibody MES-1 consisting of SEQ ID NOs: 1 and 2 [Ab-3 (lane 3)] was not bound by CA125 while the other four anti-mesothelin antibodies tested were all bound by CA125. Values were determined from the average of triplicate wells. Statistical analysis was done using student's T-test. FIG. 1B. […] Both Ab-3 and Ab-4 uptake were measured in replica in black 96-well microplates over the course of 24 hours measuring intracellular fluorescence on a Varioskan™ plate reader. […]

binding result (human serum albumin): no binding (tested: 2.5 µg/mL) | binding result [1]: no binding (tested: 2.5 µg/mL)
B1: MES-1 antibody (antibody, human IgG1, kappa, V domains shown)
VH: EVQLVESGGGLVQPGGSLRLSCAASGFDLGFYFYACWVRQAPGKGLEWVSCIYTAGSGSTYYASWAKGRFTISRDNSKNTLYLQMNSLRAEDTAVYYCARSTANTRSTYYLNLWGQGTLVTVSS
VL: DIQMTQSPSSLSASVGDRVTITCQASQRISSYLSWYQQKPGKVPKLLIYGASTLASGVPSRFSGSGSGTDFTLTISSLQPEDVATYYCQSYAYFDSNNWHAFGGGTKVEIKR
notes: For the uptake assay the antibody carried the pHrodo dye; also called meso-Ab3; Ab-3
